Where a chain is given by its changes, count along the chain named. Names and notes keep the numbering of the source. “Also recorded” adds a separate entry of the source. Like-named read-outs stand apart in the source and are kept apart here. Peptide text beside a SMILES is read from it.
Key:
[1] = target: FliM peptide (Escherichia coli) (UniProt P06974); conditions: cited from earlier work
[2] = target: CheZ peptide (Escherichia coli) (UniProt P0A9H9); assay: fluorescence; conditions: cited from earlier work
[3] = target: T87I/Y106W Phosphono-CheY (Escherichia coli, UniProt P0AE67, D57C/T87I/Y106W); type: binding, E. coli; conditions: ~2 μM protein, 100 mM HEPES, 10 mM MgCl2, 25 °C; no change in fluorescence intensity up to 500 μM peptide; uncertainty in intensity about 4 % due to noise
T87I Phosphono-CheY = T87I Phosphono-CheY (Escherichia coli, UniProt P0AE67, D57C/T87I); type: binding, E. coli; conditions: ~2 μM protein, 100 mM HEPES, 10 mM MgCl2, 25 °C; no change in fluorescence intensity up to 500 μM peptide; uncertainty in intensity about 4 % due to noise
Phosphono-CheY [4] = target: Phosphono-CheY (Escherichia coli, UniProt P0AE67, D57C); type: binding, E. coli; conditions: phosphono-CheY versus CheY~P
[5] = target: FliM peptide (Escherichia coli) (UniProt P06974); conditions: cited from earlier work; remark: listed apart in the source
Phosphono-CheY [6] = target: T1, Phosphono-CheY (Escherichia coli, UniProt P0AE67 1-129, D57C, phosphonomethyl group on Cys57 (Pcy57)); assay: ITC
T1 sequence (looked up): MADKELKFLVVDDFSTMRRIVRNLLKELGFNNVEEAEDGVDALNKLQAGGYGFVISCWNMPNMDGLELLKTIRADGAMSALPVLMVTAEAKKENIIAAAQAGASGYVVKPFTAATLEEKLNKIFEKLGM

CheZ = conditions: cited from earlier work
CheY~P = conditions: cited from earlier work
flagellar rotation = conditions: cited from earlier work
Phosphono-CheY [7] = target: T1, Phosphono-CheY; assay: other fluorescence titration
Phosphono-CheY [8] = target: T1, Phosphono-CheY; assay: ITC; remark: listed apart in the source

FliM peptide (Escherichia coli), sequence (P06974 whole entry): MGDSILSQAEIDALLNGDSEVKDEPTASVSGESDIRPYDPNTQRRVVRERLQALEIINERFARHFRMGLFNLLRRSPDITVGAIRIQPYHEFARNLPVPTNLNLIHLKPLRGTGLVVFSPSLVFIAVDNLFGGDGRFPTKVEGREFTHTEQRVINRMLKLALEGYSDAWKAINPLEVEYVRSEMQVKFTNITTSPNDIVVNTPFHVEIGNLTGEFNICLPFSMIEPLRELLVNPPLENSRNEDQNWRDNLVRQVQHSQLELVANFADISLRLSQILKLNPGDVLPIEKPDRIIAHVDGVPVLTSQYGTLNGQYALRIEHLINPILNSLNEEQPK
CheZ peptide (Escherichia coli), sequence (P0A9H9 whole entry): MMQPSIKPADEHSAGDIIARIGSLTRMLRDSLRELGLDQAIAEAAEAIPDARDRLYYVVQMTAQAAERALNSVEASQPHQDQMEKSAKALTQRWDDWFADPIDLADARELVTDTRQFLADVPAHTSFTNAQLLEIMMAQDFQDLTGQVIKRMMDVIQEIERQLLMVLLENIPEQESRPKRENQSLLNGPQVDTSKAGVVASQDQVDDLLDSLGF
T87I Phosphono-CheY, sequence (P0AE67 2-129 D57C/T87I limits assumed): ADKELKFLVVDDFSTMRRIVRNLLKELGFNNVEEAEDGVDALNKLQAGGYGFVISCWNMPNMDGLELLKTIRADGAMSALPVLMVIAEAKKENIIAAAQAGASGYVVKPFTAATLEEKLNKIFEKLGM
T87I/Y106W Phosphono-CheY, sequence (P0AE67 2-129 D57C/T87I/Y106W limits assumed): as the sequence (P0AE67 2-129 D57C/T87I limits assumed) above, with Y105W counted along it

CheY (from UniProt P0AE67)
Kd [1]: 680 µM | Kd [2]: 440 µM

CC[C@H](C)[C@H](NC(=O)[C@H](CCC(=O)O)NC(=O)[C@H](C)NC(=O)[C@H](CCC(N)=O)NC(=O)[C@H](CO)NC(=O)[C@H](CC(C)C)NC(=O)[C@@H](NC(=O)[C@H](CO)NC(=O)[C@H](CC(=O)O)NC(=O)CNC(=O)[C@@H](N)CCSC)[C@@H](C)CC)C(=O)N[C@@H](CC(=O)O)C(=O)N[C@@H](C)C(=O)N[C@@H](CC(C)C)C(=O)N[C@@H](CC(C)C)C(=O)N[C@@H](CC(N)=O)C(=O)O [FliM peptide] (H-MGDSILSQAEIDALLN-OH)
Kd (fluorescence) [3]: Not detectable ^b | Kd (fluorescence) (T87I Phosphono-CheY): Not detectable ^b | affinity / Kd for phosphono-CheY compared with CheY~P (Phosphono-CheY [4]): CheY~P binds the same FliM peptide with slightly higher affinity; also recorded: almost identical

CheY~P (from UniProt P0AE67)
Kd [5]: 27 µM | Kd [2]: 26 µM

B1: CheZ peptide (peptide)
peptide: AGVVASQDQVDDLLDSLGF
dH (Phosphono-CheY [6]): -4.8 kcal/mol

B2: CheY~P: phosphorylated form of CheY (protein, UniProt P0AE67 2-129, looked up)
Chemotaxis protein CheY: ADKELKFLVVDDFSTMRRIVRNLLKELGFNNVEEAEDGVDALNKLQAGGYGFVISDWNMPNMDGLELLKTIRADGAMSALPVLMVTAEAKKENIIAAAQAGASGYVVKPFTAATLEEKLNKIFEKLGM
modifications: phosphorylated
in vivo half-life of CheY~P (CheZ; in vivo, autophosphatase plus CheZ): less than a second | half-life of CheY~P (CheY~P; in the absence of CheZ): 15 to 20 s

B3: T87I/Y106W CheY: E. coli CheY double mutant T87I/Y106W (protein, UniProt P0AE67 2-129, looked up, variant T87I Y106W)
Chemotaxis protein CheY: B2 Chemotaxis protein CheY with T86I, Y105W
sensitivity to CheZ (CheZ): completely resistant to CheZ activity | generation of clockwise rotation of the flagella (flagellar rotation): cannot generate clockwise rotation of the flagella | autodephosphorylation rate (CheY~P): ~ 5 fold lower

B4: T87C CheY~P: phosphorylated T87C CheY (protein, UniProt P0AE67 2-129, looked up, variant T87C)
Chemotaxis protein CheY: B2 Chemotaxis protein CheY with T86C
modifications: phosphorylated
sensitivity to CheZ-promoted phosphatase activity (CheZ): the same is true of T87C CheY~P

B5: Y106W CheY: Substitution of Tyr106 in E. coli CheY with tryptophan (protein, UniProt P0AE67 2-129, looked up, variant Y106W)
Chemotaxis protein CheY: B2 Chemotaxis protein CheY with Y105W
flagellar rotation / swimming phenotype (flagellar rotation): hyperactive mutant that generates mainly clockwise rotational bias

B6: T87I CheY: E. coli CheY mutant T87I (protein, UniProt P0AE67 2-129, looked up, variant T87I)
Chemotaxis protein CheY: B2 Chemotaxis protein CheY with T86I
sensitivity to CheZ (CheZ): completely resistant to CheZ activity | generation of clockwise rotation of the flagella (flagellar rotation): cannot generate clockwise rotation of the flagella | autodephosphorylation rate (CheY~P): ~ 5 fold lower

B7: T87I CheY~P: phosphorylated T87I CheY (protein, UniProt P0AE67 2-129, looked up, variant T87I)
Chemotaxis protein CheY: B2 Chemotaxis protein CheY with T86I
modifications: phosphorylated
sensitivity to CheZ (CheZ): resistant to CheZ-promoted phosphatase activity

B8: T87I/Y106W CheY~P: phosphorylated T87I/Y106W CheY (protein, UniProt P0AE67 2-129, looked up, variant T87I Y106W)
Chemotaxis protein CheY: B2 Chemotaxis protein CheY with T86I, Y105W
modifications: phosphorylated
sensitivity to CheZ (CheZ): resistant to CheZ-promoted phosphatase activity

B9: FliM peptide (peptide)
peptide: MGDSILSQAEIDALLN
Kd (Phosphono-CheY [7]): 38 ± 1 µM | Kd (Phosphono-CheY [8]): 21 µM | dH (Phosphono-CheY [6]): -2.4 kcal/mol

Reference: publication PMC2850201 (Archives of biochemistry and biophysics, 2008)
